Reference: article doi:10.1101/2020.02.14.947937 (bioRxiv, 2020)

Target: the molecule itself
Assay: cryo-EM structure

B1: mouse homomeric 5-HT3A receptor (receptor, UniProt P23979 24-489, looked up)
chain: SRRRATQARDTTQPALLRLSDHLLANYKKGVRPVRDWRKPTTVSIDVIMYAILNVDEKNQVLTTYIWYRQYWTDEFLQWTPEDFDNVTKLSIPTDSIWVPDILINEFVDVGKSPNIPYVYVHHRGEVQNYKPLQLVTACSLDIYNFPFDVQNCSLTFTSWLHTIQDINITLWRSPEEVRSDKSIFINQGEWELLEVFPQFKEFSIDISNSYAEMKFYVIIRRRPLFYAVSLLLPSIFLMVVDIVGFCLPPDSGERVSFKITLLLGYSVFLIIVSDTLPATAIGTPLIGVYFVVCMALLVISLAETIFIVRLVHKQDLQRPVPDWLRHLVLDRIAWILCLGEQPMAHRPPATFQANKTDDCSGSDLLPAMGNHCSHVGGPQDLEKTPRGRGSPLPPPREASLAVRGLLQELSSIRHFLEKRDEMREVARDWLRVGYVLDRLLFRIYLLAVLAYSITLVTLWSIWHYS
modifications: N-linked carbohydrates
For B1, the “stoichiometry N” value was 5.
